T1: cynomolgus monkey FcγRIIIaS extracellular domain with C-terminal His-tag (cynomolgus monkey, UniProt Q8SPW2 21-206 at identity 1.00))
T1 construct: Expressed in FreeStyle 293 cells and purified; also called cyno FcγRIIIaS; cynoFcγRIIIaS; not shown: C-terminal His-tag
T1 chain: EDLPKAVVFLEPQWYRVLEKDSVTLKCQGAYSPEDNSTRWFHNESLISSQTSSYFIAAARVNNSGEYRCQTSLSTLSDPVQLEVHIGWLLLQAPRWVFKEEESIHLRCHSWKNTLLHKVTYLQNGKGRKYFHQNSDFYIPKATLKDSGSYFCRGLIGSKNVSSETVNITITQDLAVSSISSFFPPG

T2: cynomolgus monkey FcγRIIa1 extracellular domain with C-terminal His-tag (cynomolgus monkey)
T2 construct: Expressed in FreeStyle 293 cells and purified; also called cyno FcγRIIa1; cynoFcgRIIa1; not shown: C-terminal His-tag
T2 chain: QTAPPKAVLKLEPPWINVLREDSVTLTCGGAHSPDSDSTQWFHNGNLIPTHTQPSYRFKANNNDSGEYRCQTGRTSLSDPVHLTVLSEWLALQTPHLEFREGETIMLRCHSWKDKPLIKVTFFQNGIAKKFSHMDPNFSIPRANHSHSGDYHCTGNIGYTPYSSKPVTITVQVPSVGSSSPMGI

T3: cynomolgus monkey FcγRIIa2 extracellular domain with C-terminal His-tag (cynomolgus monkey)
T3 construct: Expressed in FreeStyle 293 cells and purified; also called cyno FcγRIIa2; cynoFcgRIIa2; not shown: C-terminal His-tag
T3 chain: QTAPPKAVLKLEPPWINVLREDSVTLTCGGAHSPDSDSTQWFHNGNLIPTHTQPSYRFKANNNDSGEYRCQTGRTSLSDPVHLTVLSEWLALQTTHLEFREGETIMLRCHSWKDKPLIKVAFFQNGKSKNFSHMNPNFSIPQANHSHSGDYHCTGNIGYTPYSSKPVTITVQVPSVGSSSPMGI

T4: cynomolgus monkey FcγRIIa3 extracellular domain with C-terminal His-tag (cynomolgus monkey)
T4 construct: Expressed in FreeStyle 293 cells and purified; also called cyno FcγRIIa3; cynoFcgRIIa3; not shown: C-terminal His-tag
T4 chain: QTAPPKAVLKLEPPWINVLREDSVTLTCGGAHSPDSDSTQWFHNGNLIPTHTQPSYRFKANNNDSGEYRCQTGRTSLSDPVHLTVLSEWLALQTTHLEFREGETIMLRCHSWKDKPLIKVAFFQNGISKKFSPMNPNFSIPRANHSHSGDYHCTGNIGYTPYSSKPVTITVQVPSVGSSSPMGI

T5: cynomolgus monkey FcγRIIb extracellular domain with C-terminal His-tag (cynomolgus monkey)
T5 construct: Expressed in FreeStyle 293 cells and purified; also called cyno FcγRIIb; cynoFcγRIIb; not shown: C-terminal His-tag
T5 chain: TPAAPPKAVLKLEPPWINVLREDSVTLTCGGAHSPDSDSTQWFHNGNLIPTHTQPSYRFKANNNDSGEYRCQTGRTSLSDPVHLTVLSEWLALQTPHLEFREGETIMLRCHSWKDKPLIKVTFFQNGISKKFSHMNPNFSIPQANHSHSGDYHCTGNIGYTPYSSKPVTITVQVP

T6: human FcγRIIaH extracellular domain with C-terminal His-tag (human, UniProt P12318 34-217)
T6 construct: Expressed in FreeStyle 293 cells and purified; also called human FcγRIIa (type H); FcgRIIaH; not shown: C-terminal His-tag
T6 sequence: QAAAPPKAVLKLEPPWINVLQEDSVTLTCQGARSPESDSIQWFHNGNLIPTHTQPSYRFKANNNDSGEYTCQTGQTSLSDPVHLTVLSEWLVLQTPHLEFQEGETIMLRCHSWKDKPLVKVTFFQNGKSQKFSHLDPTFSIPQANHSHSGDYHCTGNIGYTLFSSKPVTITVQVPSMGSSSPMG

T7: human FcγRIIb extracellular domain with C-terminal His-tag (human, UniProt P31994 43-217)
T7 construct: Expressed in FreeStyle 293 cells and purified; also called humanFcgRIIb; not shown: C-terminal His-tag
T7 sequence: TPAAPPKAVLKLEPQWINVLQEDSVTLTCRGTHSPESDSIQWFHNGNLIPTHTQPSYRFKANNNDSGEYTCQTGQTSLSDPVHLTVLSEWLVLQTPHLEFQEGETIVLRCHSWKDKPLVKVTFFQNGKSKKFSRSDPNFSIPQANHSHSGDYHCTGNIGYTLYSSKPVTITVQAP


Legend:
[1] = target: T1, cynomolgus monkey FcγRIIIaS …; experiment: SPR (Biacore); KD of SG1 divided by KD of the variant for this FcgR;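 note: relative to parent M103205H795-SG1 carrying the SG1 human heavy chain constant region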
[2] = target: T2, cynomolgus monkey FcγRIIa1 …; experiment: SPR (Biacore), antibody captured on chip, FcgR extracellular domain as analyte, 25 C
Protocol: (§1) The kinetic analysis of interactions between these antibodies and FcγR was carried out using BIACORE® T200 or BIACORE® 4000 (GE Healthcare). HBS-EP+ (GE Healthcare) was used as the running buffer, and the measurement temperature was set to 25° C. A chip produced by immobilizing Protein A. Protein A/G or mouse anti-human IgG kappa light chain (BD Biosciences) onto a Series S Sensor Chip CM4 or CM5 (GE Healthcare) by the amine-coupling method was used. […] After the measurement, the antibody captured on the chip was washed off by allowing reaction with 10 mM glycine-HCl, pH1.5 and 25 mM NaOH so that the chip was regenerated and used repeatedly. The sensorgrams obtained as measurement results were analyzed by the 1:1 Langmuir binding model using the BIACORE® Evaluation Software to calculate the binding rate constant ka (L/mol/s) and dissociation rate constant kd (l/s), and the dissociation constant KD (mol/L) was calculated from these values. […] Regarding such interactions, KD values were calculated using the following 1:1 binding model described in BIACORE® T100 Software Handbook BR1006-48 Edition AE.
(§2) The resultant variants were expressed using M103202L889-SK1 as light chain and their affinity to human and cynoFcγRs were evaluated (Table 20).

[3] = target: T3, cynomolgus monkey FcγRIIa2 …; experiment: as above
Protocol: as §1, §2

[4] = target: T4, cynomolgus monkey FcγRIIa3 …; experiment: as above
Protocol: as §1, §2

[5] = target: T5, cynomolgus monkey FcγRIIb extracellular …; experiment: as above
Protocol: as §1, §2

[6] = target: T1, cynomolgus monkey FcγRIIIaS …; experiment: as above
Protocol: as §1, §2

[7] = target: T6, human FcγRIIaH extracellular domain …; experiment: as above
Protocol: as §1, §2

[8] = target: T7, human FcγRIIb extracellular domain with …; experiment: as above
Protocol: as §1, §2

Binder	KD fold (SG1 = 1) [1] [fold]	Kd [2] [nM]	Kd [3] [nM]	Kd [4] [nM]	Kd [5] [nM]	Kd [6] [nM]	Kd [7] [nM]	Kd [8] [nM]
M103205H795-MY172 / M103202L889-SK1 (antibody, human IgG1, kappa, Position 396 variant derived from MY052, expressed with M103202L889-SK1 as light chain) heavy: QVTLKESGPVLVKPTETLTLTCTVSGIDLSHDDISWVRQAPGKGLEWVGIISYAGSTYYASWAKGRLTISKDTSKNQVVLTMTNMDPVDTATYYCARGVPAYSHGGDLWGQGTLVTVSSASTKGPSVFPLAPSSKSTSGGTAALGCLVKDYFPEPVTVSWNSGALTSGVHTFPAVLQSSGLYSLSSVVTVPSSSLGTQTYICNVNHKPSNTKVDKKVEPKSCDKTHTCPPCPAPELLNGPSVFLFPPKPKDTLMISRTPEVTCVVVDVSEEDPEVKFNWYVDGVEVHNAKTKPREEQYNSTYRVVSVLTVLHQDWLNGKEYKCKVSNKALPAPIEKTISKAKGQPREPQVYTLPPSREEMTKNQVSLTCLVKGFYPSDIAVEWESNGQPENNYKTTPGVLDSDGSFFLYSKLTVDKSRWQQGNVFSCSVMHEALHNHYTQKSLSLSP light: DIVMTQSPATLSLSPGERATLSCTSSQSVYHANWLSWFQQKPGQPPKLLIYWASTLAYGVPSRFSGSGSGTDFTLTISSLQPEDAATYYCAGGYGGGRYAFGQGTKVEIKRTVAAPSVFIFPPSDEQLKSGTASVVCLLNNFYPREAKVQWKVDNALQSGNSQESVTEQDSKDSTYSLSSTLTLSKADYEKHKVYACEVTHQGLSSPVTKSFNRGEC	0.11	2700	2300	11000	1200	3300	17000	1800
M103205H795-MY173 / M103202L889-SK1 (antibody, human IgG1, kappa, Position 396 variant derived from MY052, expressed with M103202L889-SK1 as light chain) heavy: QVTLKESGPVLVKPTETLTLTCTVSGIDLSHDDISWVRQAPGKGLEWVGIISYAGSTYYASWAKGRLTISKDTSKNQVVLTMTNMDPVDTATYYCARGVPAYSHGGDLWGQGTLVTVSSASTKGPSVFPLAPSSKSTSGGTAALGCLVKDYFPEPVTVSWNSGALTSGVHTFPAVLQSSGLYSLSSVVTVPSSSLGTQTYICNVNHKPSNTKVDKKVEPKSCDKTHTCPPCPAPELLNGPSVFLFPPKPKDTLMISRTPEVTCVVVDVSEEDPEVKFNWYVDGVEVHNAKTKPREEQYNSTYRVVSVLTVLHQDWLNGKEYKCKVSNKALPAPIEKTISKAKGQPREPQVYTLPPSREEMTKNQVSLTCLVKGFYPSDIAVEWESNGQPENNYKTTPHVLDSDGSFFLYSKLTVDKSRWQQGNVFSCSVMHEALHNHYTQKSLSLSP light: DIVMTQSPATLSLSPGERATLSCTSSQSVYHANWLSWFQQKPGQPPKLLIYWASTLAYGVPSRFSGSGSGTDFTLTISSLQPEDAATYYCAGGYGGGRYAFGQGTKVEIKRTVAAPSVFIFPPSDEQLKSGTASVVCLLNNFYPREAKVQWKVDNALQSGNSQESVTEQDSKDSTYSLSSTLTLSKADYEKHKVYACEVTHQGLSSPVTKSFNRGEC	0.12	1700	1800	3000	780	3100	1000	10000
M103205H795-MY175 / M103202L889-SK1 (antibody, human IgG1, kappa, Position 396 variant derived from MY052, expressed with M103202L889-SK1 as light chain) heavy: QVTLKESGPVLVKPTETLTLTCTVSGIDLSHDDISWVRQAPGKGLEWVGIISYAGSTYYASWAKGRLTISKDTSKNQVVLTMTNMDPVDTATYYCARGVPAYSHGGDLWGQGTLVTVSSASTKGPSVFPLAPSSKSTSGGTAALGCLVKDYFPEPVTVSWNSGALTSGVHTFPAVLQSSGLYSLSSVVTVPSSSLGTQTYICNVNHKPSNTKVDKKVEPKSCDKTHTCPPCPAPELLNGPSVFLFPPKPKDTLMISRTPEVTCVVVDVSEEDPEVKFNWYVDGVEVHNAKTKPREEQYNSTYRVVSVLTVLHQDWLNGKEYKCKVSNKALPAPIEKTISKAKGQPREPQVYTLPPSREEMTKNQVSLTCLVKGFYPSDIAVEWESNGQPENNYKTTPKVLDSDGSFFLYSKLTVDKSRWQQGNVFSCSVMHEALHNHYTQKSLSLSP light: DIVMTQSPATLSLSPGERATLSCTSSQSVYHANWLSWFQQKPGQPPKLLIYWASTLAYGVPSRFSGSGSGTDFTLTISSLQPEDAATYYCAGGYGGGRYAFGQGTKVEIKRTVAAPSVFIFPPSDEQLKSGTASVVCLLNNFYPREAKVQWKVDNALQSGNSQESVTEQDSKDSTYSLSSTLTLSKADYEKHKVYACEVTHQGLSSPVTKSFNRGEC	0.14	1400	1500	7500	710	2600	860	830
M103205H795-MY174 / M103202L889-SK1 (antibody, human IgG1, kappa, Position 396 variant derived from MY052, expressed with M103202L889-SK1 as light chain) heavy: QVTLKESGPVLVKPTETLTLTCTVSGIDLSHDDISWVRQAPGKGLEWVGIISYAGSTYYASWAKGRLTISKDTSKNQVVLTMTNMDPVDTATYYCARGVPAYSHGGDLWGQGTLVTVSSASTKGPSVFPLAPSSKSTSGGTAALGCLVKDYFPEPVTVSWNSGALTSGVHTFPAVLQSSGLYSLSSVVTVPSSSLGTQTYICNVNHKPSNTKVDKKVEPKSCDKTHTCPPCPAPELLNGPSVFLFPPKPKDTLMISRTPEVTCVVVDVSEEDPEVKFNWYVDGVEVHNAKTKPREEQYNSTYRVVSVLTVLHQDWLNGKEYKCKVSNKALPAPIEKTISKAKGQPREPQVYTLPPSREEMTKNQVSLTCLVKGFYPSDIAVEWESNGQPENNYKTTPIVLDSDGSFFLYSKLTVDKSRWQQGNVFSCSVMHEALHNHYTQKSLSLSP light: DIVMTQSPATLSLSPGERATLSCTSSQSVYHANWLSWFQQKPGQPPKLLIYWASTLAYGVPSRFSGSGSGTDFTLTISSLQPEDAATYYCAGGYGGGRYAFGQGTKVEIKRTVAAPSVFIFPPSDEQLKSGTASVVCLLNNFYPREAKVQWKVDNALQSGNSQESVTEQDSKDSTYSLSSTLTLSKADYEKHKVYACEVTHQGLSSPVTKSFNRGEC	0.14	1500	1600	6400	650	2500	810	850
